Source: patent US20260167699A1 (Chugai, published 2026)

T1: FcγRIIa(H) (human, UniProt P12318 34-217)
T1 construct: extracellular domain; also called 2aH
T1 sequence: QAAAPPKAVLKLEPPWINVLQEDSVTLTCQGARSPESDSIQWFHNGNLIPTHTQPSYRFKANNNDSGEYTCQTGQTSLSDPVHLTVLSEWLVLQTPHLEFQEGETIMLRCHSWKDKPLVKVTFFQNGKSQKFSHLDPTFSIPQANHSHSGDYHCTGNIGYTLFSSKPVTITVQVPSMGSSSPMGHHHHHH

T2: FcγRIIa(R) (human, UniProt P12318 34-217)
T2 construct: extracellular domain; also called 2aR
T2 sequence: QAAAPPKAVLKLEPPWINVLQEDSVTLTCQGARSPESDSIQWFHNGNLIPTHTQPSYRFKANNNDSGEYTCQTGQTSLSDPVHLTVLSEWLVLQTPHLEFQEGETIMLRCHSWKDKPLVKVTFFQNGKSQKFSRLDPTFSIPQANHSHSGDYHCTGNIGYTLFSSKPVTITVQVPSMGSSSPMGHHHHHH

T3: FcγRIIb (human, UniProt P31994 43-217)
T3 construct: extracellular domain; also called 2b
T3 sequence: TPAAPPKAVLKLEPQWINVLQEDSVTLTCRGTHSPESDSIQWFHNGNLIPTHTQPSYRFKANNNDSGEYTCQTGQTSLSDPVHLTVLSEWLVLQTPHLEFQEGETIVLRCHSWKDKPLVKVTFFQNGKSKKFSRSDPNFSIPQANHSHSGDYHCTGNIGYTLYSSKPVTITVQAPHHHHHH


What was measured:
Assay in all cases: SPR, relative to GpH7-A5/GpH7-B3/GpL16-k0 =100
FcγRIa = target: T4, FcγRIa (human, UniProt P12314 16-292)
T4 construct: extracellular domain; also called 1a

FcγRIIa(H) = target: T1, FcγRIIa(H)
FcγRIIa(R) = target: T2, FcγRIIa(R)
FcγRIIb = target: T3, FcγRIIb

T4 sequence (P12314 other isoform, or with tags, fused parts or gaps): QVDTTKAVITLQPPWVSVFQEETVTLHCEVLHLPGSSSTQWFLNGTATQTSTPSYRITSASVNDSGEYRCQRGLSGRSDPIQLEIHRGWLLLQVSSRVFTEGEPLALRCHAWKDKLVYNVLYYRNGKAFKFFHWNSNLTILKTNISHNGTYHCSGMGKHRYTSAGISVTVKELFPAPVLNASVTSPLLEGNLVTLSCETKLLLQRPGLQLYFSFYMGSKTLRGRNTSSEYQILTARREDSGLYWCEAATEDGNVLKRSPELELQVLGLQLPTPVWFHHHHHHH

| Binder | He/Con 1a (FcγRIa) [%] | He/Con 2aH (FcγRIIa(H)) [%] | He/Con 2aR (FcγRIIa(R)) [%] | He/Con 2b (FcγRIIb) [%] |
| --- | --- | --- | --- | --- |
| GpH7-A5/GpH7-B3 variant S324_10E/GpL16-k0 (antibody, human IgG1, kappa, He Ab: heterodimerized IgG1, one H chain mutated) heavy 1: not shown heavy 2: not shown light: DIVMTQSPLSLPVTPGEPASISCQASESLVHSNRNTYLHWYLQKPGQSPQLLIYKVSNRFSGVPDRFSGSGSGTDFTLKISRVEAEDVGVYYCSQNTHVPPTFGQGTKVEIERTVAAPSVFIFPPSDEQLKSGTASVVCLLNNFYPREAKVQWKVDNALQSGNSQESVTEQDSKDSTYSLSSTLTLSKADYEKHKVYACEVTHQGLSSPVTKSFNRGEC | 98.9 | 114 | 99 | 101 |
| GpH7-A5/GpH7-B3 variant S324_19Q/GpL16-k0 (antibody, human IgG1, kappa, He Ab: heterodimerized IgG1, one H chain mutated) heavy 1: not shown heavy 2: not shown light: DIVMTQSPLSLPVTPGEPASISCQASESLVHSNRNTYLHWYLQKPGQSPQLLIYKVSNRFSGVPDRFSGSGSGTDFTLKISRVEAEDVGVYYCSQNTHVPPTFGQGTKVEIERTVAAPSVFIFPPSDEQLKSGTASVVCLLNNFYPREAKVQWKVDNALQSGNSQESVTEQDSKDSTYSLSSTLTLSKADYEKHKVYACEVTHQGLSSPVTKSFNRGEC | 106 | 106 | 86.8 | 87.2 |
| GpH7-A5/GpH7-B3 variant S324_18N/GpL16-k0 (antibody, human IgG1, kappa, He Ab: heterodimerized IgG1, one H chain mutated) heavy 1: not shown heavy 2: not shown light: DIVMTQSPLSLPVTPGEPASISCQASESLVHSNRNTYLHWYLQKPGQSPQLLIYKVSNRFSGVPDRFSGSGSGTDFTLKISRVEAEDVGVYYCSQNTHVPPTFGQGTKVEIERTVAAPSVFIFPPSDEQLKSGTASVVCLLNNFYPREAKVQWKVDNALQSGNSQESVTEQDSKDSTYSLSSTLTLSKADYEKHKVYACEVTHQGLSSPVTKSFNRGEC | 109 | 109 | 101 | 106 |
| GpH7-A5/GpH7-B3 variant S324_11K/GpL16-k0 (antibody, human IgG1, kappa, He Ab: heterodimerized IgG1, one H chain mutated) heavy 1: not shown heavy 2: not shown light: DIVMTQSPLSLPVTPGEPASISCQASESLVHSNRNTYLHWYLQKPGQSPQLLIYKVSNRFSGVPDRFSGSGSGTDFTLKISRVEAEDVGVYYCSQNTHVPPTFGQGTKVEIERTVAAPSVFIFPPSDEQLKSGTASVVCLLNNFYPREAKVQWKVDNALQSGNSQESVTEQDSKDSTYSLSSTLTLSKADYEKHKVYACEVTHQGLSSPVTKSFNRGEC | 96.3 | 102 | 91 | 89.6 |
| GpH7-A5/GpH7-B3 variant S324_15Y/GpL16-k0 (antibody, human IgG1, kappa, He Ab: heterodimerized IgG1, one H chain mutated) heavy 1: not shown heavy 2: not shown light: DIVMTQSPLSLPVTPGEPASISCQASESLVHSNRNTYLHWYLQKPGQSPQLLIYKVSNRFSGVPDRFSGSGSGTDFTLKISRVEAEDVGVYYCSQNTHVPPTFGQGTKVEIERTVAAPSVFIFPPSDEQLKSGTASVVCLLNNFYPREAKVQWKVDNALQSGNSQESVTEQDSKDSTYSLSSTLTLSKADYEKHKVYACEVTHQGLSSPVTKSFNRGEC | 107 | 114 | 107 | 115 |
| GpH7-A5/GpH7-B3 variant Y296_01G/GpL16-k0 (antibody, human IgG1, kappa, He Ab: heterodimerized IgG1, one H chain mutated) heavy 1: not shown heavy 2: not shown light: DIVMTQSPLSLPVTPGEPASISCQASESLVHSNRNTYLHWYLQKPGQSPQLLIYKVSNRFSGVPDRFSGSGSGTDFTLKISRVEAEDVGVYYCSQNTHVPPTFGQGTKVEIERTVAAPSVFIFPPSDEQLKSGTASVVCLLNNFYPREAKVQWKVDNALQSGNSQESVTEQDSKDSTYSLSSTLTLSKADYEKHKVYACEVTHQGLSSPVTKSFNRGEC | 99.4 | 91.6 | 91.6 | 80.4 |
| GpH7-A5/GpH7-B3 variant S324_16H/GpL16-k0 (antibody, human IgG1, kappa, He Ab: heterodimerized IgG1, one H chain mutated) heavy 1: not shown heavy 2: not shown light: DIVMTQSPLSLPVTPGEPASISCQASESLVHSNRNTYLHWYLQKPGQSPQLLIYKVSNRFSGVPDRFSGSGSGTDFTLKISRVEAEDVGVYYCSQNTHVPPTFGQGTKVEIERTVAAPSVFIFPPSDEQLKSGTASVVCLLNNFYPREAKVQWKVDNALQSGNSQESVTEQDSKDSTYSLSSTLTLSKADYEKHKVYACEVTHQGLSSPVTKSFNRGEC | 106 | 113 | 105 | 109 |
| GpH7-A5/GpH7-B3 variant S324_12R/GpL16-k0 (antibody, human IgG1, kappa, He Ab: heterodimerized IgG1, one H chain mutated) heavy 1: not shown heavy 2: not shown light: DIVMTQSPLSLPVTPGEPASISCQASESLVHSNRNTYLHWYLQKPGQSPQLLIYKVSNRFSGVPDRFSGSGSGTDFTLKISRVEAEDVGVYYCSQNTHVPPTFGQGTKVEIERTVAAPSVFIFPPSDEQLKSGTASVVCLLNNFYPREAKVQWKVDNALQSGNSQESVTEQDSKDSTYSLSSTLTLSKADYEKHKVYACEVTHQGLSSPVTKSFNRGEC | 95.9 | 107 | 84 | 82.4 |

Second part, the binder after the results:

| He/Con 1a (FcγRIa) [%] | He/Con 2aH (FcγRIIa(H)) [%] | He/Con 2aR (FcγRIIa(R)) [%] | He/Con 2b (FcγRIIb) [%] | Binder |
| --- | --- | --- | --- | --- |
| 101 | 86.9 | 93.7 | 83.5 | GpH7-A5/GpH7-B3 variant Y296_08L/GpL16-k0 (antibody, human IgG1, kappa, He Ab: heterodimerized IgG1, one H chain mutated) heavy 1: not shown heavy 2: not shown light: DIVMTQSPLSLPVTPGEPASISCQASESLVHSNRNTYLHWYLQKPGQSPQLLIYKVSNRFSGVPDRFSGSGSGTDFTLKISRVEAEDVGVYYCSQNTHVPPTFGQGTKVEIERTVAAPSVFIFPPSDEQLKSGTASVVCLLNNFYPREAKVQWKVDNALQSGNSQESVTEQDSKDSTYSLSSTLTLSKADYEKHKVYACEVTHQGLSSPVTKSFNRGEC |
| 101 | 86.9 | 92 | 80.4 | GpH7-A5/GpH7-B3 variant Y296_03V/GpL16-k0 (antibody, human IgG1, kappa, He Ab: heterodimerized IgG1, one H chain mutated) heavy 1: not shown heavy 2: not shown light: DIVMTQSPLSLPVTPGEPASISCQASESLVHSNRNTYLHWYLQKPGQSPQLLIYKVSNRFSGVPDRFSGSGSGTDFTLKISRVEAEDVGVYYCSQNTHVPPTFGQGTKVEIERTVAAPSVFIFPPSDEQLKSGTASVVCLLNNFYPREAKVQWKVDNALQSGNSQESVTEQDSKDSTYSLSSTLTLSKADYEKHKVYACEVTHQGLSSPVTKSFNRGEC |
| 103 | 102 | 101 | 100 | GpH7-A5/GpH7-B3 variant Y296_09D/GpL16-k0 (antibody, human IgG1, kappa, He Ab: heterodimerized IgG1, one H chain mutated) heavy 1: not shown heavy 2: not shown light: DIVMTQSPLSLPVTPGEPASISCQASESLVHSNRNTYLHWYLQKPGQSPQLLIYKVSNRFSGVPDRFSGSGSGTDFTLKISRVEAEDVGVYYCSQNTHVPPTFGQGTKVEIERTVAAPSVFIFPPSDEQLKSGTASVVCLLNNFYPREAKVQWKVDNALQSGNSQESVTEQDSKDSTYSLSSTLTLSKADYEKHKVYACEVTHQGLSSPVTKSFNRGEC |
| 99.8 | 89.1 | 93 | 83.1 | GpH7-A5/GpH7-B3 variant Y296_02A/GpL16-k0 (antibody, human IgG1, kappa, He Ab: heterodimerized IgG1, one H chain mutated) heavy 1: not shown heavy 2: not shown light: DIVMTQSPLSLPVTPGEPASISCQASESLVHSNRNTYLHWYLQKPGQSPQLLIYKVSNRFSGVPDRFSGSGSGTDFTLKISRVEAEDVGVYYCSQNTHVPPTFGQGTKVEIERTVAAPSVFIFPPSDEQLKSGTASVVCLLNNFYPREAKVQWKVDNALQSGNSQESVTEQDSKDSTYSLSSTLTLSKADYEKHKVYACEVTHQGLSSPVTKSFNRGEC |
| 102 | 94 | 98.2 | 99.4 | GpH7-A5/GpH7-B3 variant Y296_10E/GpL16-k0 (antibody, human IgG1, kappa, He Ab: heterodimerized IgG1, one H chain mutated) heavy 1: not shown heavy 2: not shown light: DIVMTQSPLSLPVTPGEPASISCQASESLVHSNRNTYLHWYLQKPGQSPQLLIYKVSNRFSGVPDRFSGSGSGTDFTLKISRVEAEDVGVYYCSQNTHVPPTFGQGTKVEIERTVAAPSVFIFPPSDEQLKSGTASVVCLLNNFYPREAKVQWKVDNALQSGNSQESVTEQDSKDSTYSLSSTLTLSKADYEKHKVYACEVTHQGLSSPVTKSFNRGEC |
| 101 | 94.2 | 96.8 | 89 | GpH7-A5/GpH7-B3 variant Y296_06M/GpL16-k0 (antibody, human IgG1, kappa, He Ab: heterodimerized IgG1, one H chain mutated) heavy 1: not shown heavy 2: not shown light: DIVMTQSPLSLPVTPGEPASISCQASESLVHSNRNTYLHWYLQKPGQSPQLLIYKVSNRFSGVPDRFSGSGSGTDFTLKISRVEAEDVGVYYCSQNTHVPPTFGQGTKVEIERTVAAPSVFIFPPSDEQLKSGTASVVCLLNNFYPREAKVQWKVDNALQSGNSQESVTEQDSKDSTYSLSSTLTLSKADYEKHKVYACEVTHQGLSSPVTKSFNRGEC |
| 101 | 92.7 | 96.7 | 85.5 | GpH7-A5/GpH7-B3 variant Y296_07I/GpL16-k0 (antibody, human IgG1, kappa, He Ab: heterodimerized IgG1, one H chain mutated) heavy 1: not shown heavy 2: not shown light: DIVMTQSPLSLPVTPGEPASISCQASESLVHSNRNTYLHWYLQKPGQSPQLLIYKVSNRFSGVPDRFSGSGSGTDFTLKISRVEAEDVGVYYCSQNTHVPPTFGQGTKVEIERTVAAPSVFIFPPSDEQLKSGTASVVCLLNNFYPREAKVQWKVDNALQSGNSQESVTEQDSKDSTYSLSSTLTLSKADYEKHKVYACEVTHQGLSSPVTKSFNRGEC |
| 101 | 97.8 | 105 | 101 | GpH7-A5/GpH7-B3 variant Y296_04F/GpL16-k0 (antibody, human IgG1, kappa, He Ab: heterodimerized IgG1, one H chain mutated) heavy 1: not shown heavy 2: not shown light: DIVMTQSPLSLPVTPGEPASISCQASESLVHSNRNTYLHWYLQKPGQSPQLLIYKVSNRFSGVPDRFSGSGSGTDFTLKISRVEAEDVGVYYCSQNTHVPPTFGQGTKVEIERTVAAPSVFIFPPSDEQLKSGTASVVCLLNNFYPREAKVQWKVDNALQSGNSQESVTEQDSKDSTYSLSSTLTLSKADYEKHKVYACEVTHQGLSSPVTKSFNRGEC |
